The record followed here is patent publication US20230192840A1.

In test [1] the target is human Claudin18.2 (human) (UniProt P56856). Kind of test: cell-based or functional assay.
Test [2] shares this target. As to the kind of experiment: flow cytometry (IntelliCyt) on Ba/F3-Claudin 18.2 cells. For orientation: Flow cytometry measures light scatter and fluorescence of single cells or particles in a stream.

B1: humanized antibody 1E9.2-hz15 (antibody, human IgG1, kappa, V domains shown)
VH: EVQLVESGGGLVKPGGSLRLSCAASGFSFSNSAMSWVRQAPGKGLEWVSTISSGDSYTYYADSVKGRFTISRDNAKNSLYLQMNSLRAEDTAVYYCARQGYGNALDYWGQGTLVTVSS
VL: DIVMTQTPLSLPVTPGEPASISCKSSQSLLNSGNQKNYLTWYLQKPGQSPQLLIYWSSTRESGVPDRFSGSGSGTDFTLKISRVEAEDFGVYYCQNDYYYPLTFGGGTKVEIKR
In test [1], B1 showed an ADCC EC50 of 0.08 µg/mL and an ADCC Max killing rate % of 66.2%. In test [2], this molecule came in with a Max MFI of 8.99e+06 MFI.

B2: humanized antibody 1E9.2-hz17 (antibody, human IgG1, kappa, V domains shown)
VH: EVQLVESGGGLVKPGGSLRLSCAASGFSFSNSAMSWVRQAPGKGLEWVSTISSGDSYTYYADSVKGRFTISRDNAKNSLYLQMNSLRAEDTAVYYCARQGYGNALDYWGQGTLVTVSS
VL: DIVMTQTPLSLPVTPGEPASISCKSSQSLLQSGNGKNYLTWYLQKPGQSPQLLIYWSSTRESGVPDRFSGSGSGTDFTLKISRVEAEDFGVYYCQNDYYYPLTFGGGTKVEIKR
On to B2, for which, in test [1], the ADCC EC50 is 0.113 µg/mL and the ADCC Max killing rate % worked out at 59.6%. This molecule also displayed a Max MFI in test [2] of 5.9e+06 MFI.
